According to US20220220218A1 (JIANGSU HENGRUI MEDICINE, published 2022):
Positions count from the first letter of the chain named.

T1: human CD73 (huCD73) protein, antigen of the Biacore assay (human, UniProt P21589 27-547, limits assumed)
T1 construct: also called human CD73 antigen
T1 sequence (looked up): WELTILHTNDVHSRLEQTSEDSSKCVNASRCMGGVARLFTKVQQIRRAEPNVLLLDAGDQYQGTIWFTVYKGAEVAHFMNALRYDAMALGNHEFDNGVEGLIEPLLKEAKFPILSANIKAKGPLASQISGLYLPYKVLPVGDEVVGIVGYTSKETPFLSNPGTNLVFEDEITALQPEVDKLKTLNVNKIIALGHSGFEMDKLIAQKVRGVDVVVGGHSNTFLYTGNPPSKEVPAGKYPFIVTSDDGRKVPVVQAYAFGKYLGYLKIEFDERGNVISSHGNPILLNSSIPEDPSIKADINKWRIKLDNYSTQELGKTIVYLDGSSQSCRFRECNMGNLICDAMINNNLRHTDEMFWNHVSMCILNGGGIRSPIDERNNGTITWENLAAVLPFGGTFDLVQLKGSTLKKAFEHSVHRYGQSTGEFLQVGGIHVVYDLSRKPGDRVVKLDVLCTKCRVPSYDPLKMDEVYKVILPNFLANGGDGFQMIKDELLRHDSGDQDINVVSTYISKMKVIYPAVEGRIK

B1: Hab110.23 (antibody, V domains shown)
VH: EVQLVQSGAEVKKPGASVKVSCKASGYTFTSYTMHWVRQAPGQRLEWIGYINPNSFYIEYNQKFKDRATLTADTSASTAYMELSSLRSEDTAVYYCARGDYDLFYDMDNWGQGTTVTVSS
VL: DIQMTQSPSSLSASVGDRVTITCRASQDIGNSLNWLQQKPGKAIKRLIYATFRLDSGVPSRFSGSRSGTEYTLTISSLQPEDFATYYCQQYASFPWTFGGGTKVEIK
notes: VL2 + VH3; recombined with human heavy and light constant regions
B2: Hab110.22 (antibody, V domains shown)
VH: B1 VH with I48M, A68V, L70I
VL: B1 VL
notes: VL2 + VH2; recombined with human heavy and light constant regions
B3: Hab110.24 (antibody, V domains shown)
VH: B1 VH with R67K
VL: B1 VL
notes: VL2 + VH4; recombined with human heavy and light constant regions
B4: Hab110.25 (antibody, V domains shown)
VH: B1 VH with R38K, R44G, R67K
VL: B1 VL
notes: VL2 + VH5; recombined with human heavy and light constant regions
B5: Hab110.31 (antibody, V domains shown)
VH: B1 VH with I48M, A68V, L70I, A72R
VL: B1 VL with K42G, T85D
notes: VL3 + VH1; recombined with human heavy and light constant regions
B6: Hab110.32 (antibody, V domains shown)
VH: B1 VH with I48M, A68V, L70I
VL: B1 VL with K42G, T85D
notes: VL3 + VH2; recombined with human heavy and light constant regions
B7: Hab110.34 (antibody, V domains shown)
VH: B1 VH with R67K
VL: B1 VL with K42G, T85D
notes: VL3 + VH4; recombined with human heavy and light constant regions
B8: Hab110.35 (antibody, V domains shown)
VH: B1 VH with R38K, R44G, R67K
VL: B1 VL with K42G, T85D
notes: VL3 + VH5; recombined with human heavy and light constant regions
B9: Hab127.32 (antibody, V domains shown)
VH: EVQLVQSGAEVKKPGASVKVSCKASGYTFTAYFMNWVMQAPGQGLEWMGRIYHNNGDTFYSQKFKGRVTMTVDKSTSTVYMELSSLRSEDTAVYYCATSYVGDWGQGTTVTVSS
VL: B1 VL with N31D, K42G, I44L, F52S, R53S, R66G, Q89L
notes: as for B6
B10: Hab127.13 (antibody, V domains shown)
VH: B9 VH with M48I, V68A, M70L
VL: B1 VL with N31D, L36Y, I44P, F52S, R53S, R66G, Y71F, Q89L
notes: VL1 + VH3; recombined with human heavy and light constant regions
B11: Hab127.14 (antibody, V domains shown)
VH: B9 VH with G44S, M48I, V68A, M70L, S84R
VL: B1 VL with N31D, L36Y, I44P, F52S, R53S, R66G, Y71F, Q89L
notes: VL1 + VH4; recombined with human heavy and light constant regions
B12: Hab127.21 (antibody, V domains shown)
VH: B9 VH with M38R
VL: B1 VL with N31D, I44P, F52S, R53S, R66G, Q89L
notes: VL2 + VH1; recombined with human heavy and light constant regions
B13: Hab127.22 (antibody, V domains shown)
VH: B9 VH
VL: B1 VL with N31D, I44P, F52S, R53S, R66G, Q89L
notes: as for B2
B14: Hab127.23 (antibody, V domains shown)
VH: B9 VH with M48I, V68A, M70L
VL: B1 VL with N31D, I44P, F52S, R53S, R66G, Q89L
notes: as for B1
B15: Hab127.24 (antibody, V domains shown)
VH: B9 VH with G44S, M48I, V68A, M70L, S84R
VL: B1 VL with N31D, I44P, F52S, R53S, R66G, Q89L
notes: as for B3
B16: Hab127.31 (antibody, V domains shown)
VH: B9 VH with M38R
VL: B1 VL with N31D, K42G, I44L, F52S, R53S, R66G, Q89L
notes: as for B5
B17: Hab127.31a (antibody, V domains shown)
VH: B9 VH with M38R, N55Q
VL: B1 VL with N31D, K42G, I44L, F52S, R53S, R66G, Q89L
notes: VL3 + VH1a, HCDR2 hot-spot variant; full-length antibody
B18: Hab127.31b (antibody, V domains shown)
VH: B9 VH with M38R, N55L
VL: B1 VL with N31D, K42G, I44L, F52S, R53S, R66G, Q89L
notes: VL3 + VH1b, HCDR2 hot-spot variant; full-length antibody
B19: Hab127.31c (antibody, V domains shown)
VH: B9 VH with M38R, N55T
VL: B1 VL with N31D, K42G, I44L, F52S, R53S, R66G, Q89L
notes: VL3 + VH1c, HCDR2 hot-spot variant; full-length antibody
B20: Hab127.31e (antibody, V domains shown)
VH: B9 VH with M38R, N55E
VL: B1 VL with N31D, K42G, I44L, F52S, R53S, R66G, Q89L
notes: VL3 + VH1e, HCDR2 hot-spot variant; full-length antibody
B21: Hab127.31f (antibody, V domains shown)
VH: B9 VH with M38R, N55H
VL: B1 VL with N31D, K42G, I44L, F52S, R53S, R66G, Q89L
notes: VL3 + VH1f, HCDR2 hot-spot variant; full-length antibody
B22: Hab127.31g (antibody, V domains shown)
VH: B9 VH with M38R, N54Q, G56V
VL: B1 VL with N31D, K42G, I44L, F52S, R53S, R66G, Q89L
notes: VL3 + VH1g, HCDR2 hot-spot variant; full-length antibody
B23: Hab127.31h (antibody, V domains shown)
VH: B9 VH with M38R, N54L, G56V
VL: B1 VL with N31D, K42G, I44L, F52S, R53S, R66G, Q89L
notes: VL3 + VH1h, HCDR2 hot-spot variant; full-length antibody
B24: Hab127.31i (antibody, V domains shown)
VH: B9 VH with M38R, N54H, G56V
VL: B1 VL with N31D, K42G, I44L, F52S, R53S, R66G, Q89L
notes: VL3 + VH1i, HCDR2 hot-spot variant; full-length antibody
B25: Hab127.33 (antibody, V domains shown)
VH: B9 VH with M48I, V68A, M70L
VL: B1 VL with N31D, K42G, I44L, F52S, R53S, R66G, Q89L
notes: VL3 + VH3; recombined with human heavy and light constant regions
B26: Hab127.34 (antibody, V domains shown)
VH: B9 VH with G44S, M48I, V68A, M70L, S84R
VL: B1 VL with N31D, K42G, I44L, F52S, R53S, R66G, Q89L
notes: as for B7
B27: Hab127.41 (antibody, V domains shown)
VH: B9 VH with M38R
VL: B1 VL with N31D, K42G, I44L, F52S, R53S, R66G, T69S, E70D, Q89L
notes: VL4 + VH1; recombined with human heavy and light constant regions
B28: Hab127.42 (antibody, V domains shown)
VH: B9 VH
VL: B1 VL with N31D, K42G, I44L, F52S, R53S, R66G, T69S, E70D, Q89L
notes: VL4 + VH2; recombined with human heavy and light constant regions
B29: Hab127.43 (antibody, V domains shown)
VH: B9 VH with M48I, V68A, M70L
VL: B1 VL with N31D, K42G, I44L, F52S, R53S, R66G, T69S, E70D, Q89L
notes: VL4 + VH3; recombined with human heavy and light constant regions
B30: Hab127.44 (antibody, V domains shown)
VH: B9 VH with G44S, M48I, V68A, M70L, S84R
VL: B1 VL with N31D, K42G, I44L, F52S, R53S, R66G, T69S, E70D, Q89L
notes: VL4 + VH4; recombined with human heavy and light constant regions
B31: CH108 (antibody, V domains shown)
VH: QVQLKQSGPGLVQPSQSLSITCTVFGFSLKSYGIQWVRQSPGKGLEWLGVIWSGGSADYNAAFISRLSISKDNSKSQVFFKMNSLQGDDTAIYYCAGQYGSVWGQGTSVTVSS
VL: DIQMTQSPSSLSASLGERVSLTCRASQDIGDRLNWLQQEPDGTIKRLIYATSSLDSGVPKRFSGSRSGSDYSLTISSLESEDFVDYYCLQYAGSWTFGGGTKLEIK
notes: also called chimeric antibody of mab108

Biological target: T1, human CD73 (huCD73) protein, antigen of …
Test: SPR Biacore T200; antibody captured on Protein A chip, CD73 in flow; 1:1 Langmuir
Text: In this experiment, Biacore instrument was used to determine the affinity of the humanized anti-CD73 antibodies to be tested with human CD73 (huCD73) and monkey CD73 (cynoCD73).
A certain amount of test antibody was affinity-captured with Protein A biosensing chip (Cat. #29127556, GE), and then a certain concentration of human or monkey CD73 antigen was allowed to flow through the surface of the chip. The reaction signals were detected in real time with Biacore instrument (Biacore T200, GE) to generate a binding and dissociation curve. At the end of each cycle, after the dissociation was completed, the biosensor chip was washed and regenerated with Glycine-HCl, pH1.5 (Cat. #BR-1003-54, GE). The running buffer for the assay was 1×HBS-EP buffer solution (Cat. #BR-1001-88, GE).
The data obtained from the experiment was fitted against (1:1) Langmuir model using GE Biacore T200 Evaluation version 3.0 software, and the affinity values were obtained, as shown in Table 12 and Table 13 for details.

Binder | Kd | koff | kon
B1 | 0.166 nM | 5.43e-05 s⁻¹ | 327000 M⁻¹ s⁻¹
B2 | 0.147 nM | 4.95e-05 s⁻¹ | 338000 M⁻¹ s⁻¹
B3 | 0.188 nM | 6.2e-05 s⁻¹ | 330000 M⁻¹ s⁻¹
B4 | 0.223 nM | 7.79e-05 s⁻¹ | 349000 M⁻¹ s⁻¹
B5 | 0.161 nM | 5.86e-05 s⁻¹ | 364000 M⁻¹ s⁻¹
B6 | 0.188 nM | 6.94e-05 s⁻¹ | 370000 M⁻¹ s⁻¹
B7 | 0.228 nM | 8.16e-05 s⁻¹ | 358000 M⁻¹ s⁻¹
B8 | 0.244 nM | 9.4e-05 s⁻¹ | 385000 M⁻¹ s⁻¹
B9 | 0.277 nM | 4.6e-05 s⁻¹ | 166000 M⁻¹ s⁻¹
B10 | 0.79 nM | 0.000119 s⁻¹ | 150000 M⁻¹ s⁻¹
B11 | 0.847 nM | 0.000118 s⁻¹ | 140000 M⁻¹ s⁻¹
B12 | 0.333 nM | 5.4e-05 s⁻¹ | 162000 M⁻¹ s⁻¹
B13 | 0.292 nM | 4.86e-05 s⁻¹ | 166000 M⁻¹ s⁻¹
B14 | 0.276 nM | 4.59e-05 s⁻¹ | 166000 M⁻¹ s⁻¹
B15 | 0.28 nM | 4.48e-05 s⁻¹ | 160000 M⁻¹ s⁻¹
B16 | 0.257 nM | 4.2e-05 s⁻¹ | 163000 M⁻¹ s⁻¹

Binder | Kd | koff | kon
B17 | 0.219 nM | 4.8e-05 s⁻¹ | 219000 M⁻¹ s⁻¹
B18 | 0.204 nM | 4.48e-05 s⁻¹ | 220000 M⁻¹ s⁻¹
B19 | 0.205 nM | 4.76e-05 s⁻¹ | 232000 M⁻¹ s⁻¹
B20 | 0.212 nM | 3.75e-05 s⁻¹ | 177000 M⁻¹ s⁻¹
B21 | 0.193 nM | 4.33e-05 s⁻¹ | 224000 M⁻¹ s⁻¹
B22 | 0.319 nM | 5.18e-05 s⁻¹ | 163000 M⁻¹ s⁻¹
B23 | 0.441 nM | 6.66e-05 s⁻¹ | 151000 M⁻¹ s⁻¹
B24 | 0.585 nM | 7.93e-05 s⁻¹ | 136000 M⁻¹ s⁻¹
B25 | 0.211 nM | 3.69e-05 s⁻¹ | 175000 M⁻¹ s⁻¹
B26 | 0.22 nM | 3.58e-05 s⁻¹ | 163000 M⁻¹ s⁻¹
B27 | 0.191 nM | 4.39e-05 s⁻¹ | 230000 M⁻¹ s⁻¹
B28 | 0.166 nM | 3.94e-05 s⁻¹ | 238000 M⁻¹ s⁻¹
B29 | 0.15 nM | 3.58e-05 s⁻¹ | 239000 M⁻¹ s⁻¹
B30 | 0.18 nM | 4.15e-05 s⁻¹ | 230000 M⁻¹ s⁻¹
B31 | 0.365 nM | 5.82e-05 s⁻¹ | 160000 M⁻¹ s⁻¹
